Results as given in US8088892B2, “Inhibitors of proteins from the Rho-GEF family” (Centre National de la Recherche Scientifique (C.N.R.S.), priority 2002, dated 2012).

B1: TRIAPα: aptamer of 154 amino acids: variable region of 42 amino acids inserted into the thioredoxin protein; tested as GST fusion (protein)
chain: MSDKIIHLTDDSFDTDVLKADGAILVDFWAEWCGPAREGADGAICGYNLATLVMLGPSERVFCPLCEPCSSDIYELMGPCKMIAPILDEIADEYQGKLTVAKLNIDQNPGTAPKYGIRGIPTLLLFKNGEVASATKVGALSKGQLKEFLDANLA

Key:
[1] = tested on: ectopically expressed TrioGEFD2 in PC12 cells; test: NGF-induced neurite outgrowth in PC12 cells expressing TrioGEFD2; type: cell-based; conditions: PC12 co-transfected with TrioGEFD2, NGF 50 ng/ml 16 hours
Method: FIG. 5C represents the inhibition by TRIPα of the TrioGEFD2 effect in neuronal morphology. Immunofluorescence images of PC12 cells co-transfected with HA-TrioGEFD2 and either GFP-TRIPα (panels d, e, f) or GFP alone panels a, b, c) are shown. After 48 hours of expression, cells were treated for 16 hours with NGF (nerve growth factor) (50 ng/ml) and fixed. Expression of GFP and GFP-TRIPα was directly visualised (a, d) whereas overexpressed TrioGEFD2 was detected using the 12CA5 anti-HA antibody followed by AMCA-conjugated anti-mouse IgG (b, e). Filamentous actin was stained with Rhodamine-conjugated Phalloidin (c, f). Scale bar: 20 μm.
Cells were transfected with HA-tagged TrioGEFD2 (left side of the figure), myc-tagged KalGEFD2 (middle of the figure) or RhoAV14 (a constitutively active mutant of RhoA) (right side of the figure), and with either GFP-TRIPα (white bars), GFP-TRIPβ (hatched bars) or GFP alone (black bars). Cells were processed as described in FIG. 5C and the number of co-transfected cells with neurites was counted.
Numerous reports have established Rho-GTPases as key regulators of neuronal morphology (Luo, 2000). In neuronal cell lines, activation of RhoG, Rac and Cdc42 induces neurite outgrowth, while RhoA stimulation antagonises this effect by promoting neurite retraction (Katoh et al., 2000; Kozma et al., 1997; Yamaguchi et al., 2001). The PC12 cell line is a useful cellular model for studying Nerve Growth Factor (NGF)-induced neuronal differentiation. PC12-E2 cells were plated on collagen-coated 12 mm coverslips as described previously (Estrach et al., 2002) and transfected with the Lipofectamine Plus reagent (Life Technologies) according to the manufacturer's instructions. After transfection and differentiation with NGF (Promega, 50 ng/ml in DMEM medium supplemented with 0.5% horse serum (HS)) for 16 hours, PC12 cells were fixed and permeabilised as described (Estrach et al., 2002). […] Images were recorded using a Hamamatsu CCD camera. All transfections were repeated at least three times, and an average of 200 cells was counted each time. […]

[2] = target: T1, Kalirin GEFD2 (KalGEFD2) (Rattus norvegicus, UniProt P97924); test: In vitro GEF assay on RhoA; type: biochemical; design: key to in vitro GEF assay (inhibition): +++^2 and +^2 represent respectively a full and a partial (see FIG. 3) inhibitory effect; +++^2 and +^2 represent respectively a full and a partial (see FIG. 3) inhibitory effect; −−^2 represents a lack of inhibitory effect; conditions: for Effect on Kalirin GEFD2 exchange activity on RhoA: 20-fold molar excess, KalGEFD2 1.7 μM
T1 construct: KalGEFD2, a.a; 1850-2190, 65% identity with TrioGEFD2; made in house
Method: To test the specificity of TRIAPα inhibition in vitro, exchange experiments were performed either on RhoA with different RhoA-specific GEFs: Trio GEFD2 (0.4 μM), Kalirin GEFD2 (KalGEFD2, 1.7 μM), p63RhoGEF (Souchet et al., 2002) (0.4 μM) and Lbc (amino acids 172-598; Zheng et al., 1995) (0.4 μM), or on RhoG, with the RhoG-specific GEF domain of Trio (TrioGEFD1, 0.1 μM). Exchange assays were performed with the recombinant GEFs as described in FIG. 2A. Different concentrations of RhoGEFs were used to yield a similar nucleotide exchange efficiency. For each exchange factor, three independent experiments were done in absence (black bar) or in the presence (grey bar) of a 20-fold molar excess of TRIAPα.
An in vitro guanine nucleotide exchange (GEF) assay was used to test whether the TrioGEFD2-binding aptamers could inhibit the catalytic activity of TrioGEFD2 towards RhoA. For this purpose, the aptamers TRIAPα, TRIAPβ and TRIAPγ (including the Trx gene) were excised from pEG202 as EcoRI/NotI fragments and cloned into pGEX4T1 EcoRI/NotI. The aptamers were then expressed and purified from bacteria as GST fusion proteins, using standard procedures (Smith and Johnson, 1988). GTPase-GST fusion proteins were prepared, loaded with [^3H]GDP and the guanine nucleotide release assays were performed as described (Debant et al., 1996), using recombinant GST-TrioGEFD2 (a.a. 1848-2298), TrioDH2 (a.a. 1848-2096). For each point, 0.3 μM GTPase was mixed with or without 0.4 μM GEF in presence of non-labeled GTP, and the reaction mix was filtered after 0 min and 15 mm reaction at 25° C. The catalytic activity of TrioGEFD2 was thus measured by the decrease of the GTPase-associated radioactivity. The results are expressed as the ratio “exchange after 15 min over exchange after 0 min” (% bound [^3H]GDP-RhoA). To measure the effect of the aptamers on the exchange activity, a 20-fold molar excess of GST-TRIAPs was pre-incubated with GEFD2 (or GEFD1) for 30 min on ice before the exchange assay was carried out. For each experiment, data were obtained in triplicate.
The effect of GST-TRIAPα on other Rho-GEFs that display in vitro exchange activity on RhoA was next tested to investigate whether TRIAPα inhibition was specific of TrioGEFD2. The exchange activities of the RhoGEF Lbc (a.a. 1-424, FIG. 3)(Zheng et al., 1995) and Dbl (a.a. 495-826, data not shown) were not affected by GST-TRIAPα. The effect of GST-TRIAPα on the catalytic activity of RhoGEFs that display a high sequence similarity with TrioGEFD2 was then tested: the recently identified RhoA-specific p63RhoGEF (Souchet et al., 2002) (a.a. 149-374, 71.5% identity with TrioGEFD2, 0.4 μM) and the second Rho-GEF domain of the Trio family member Kalirin (KalGEFD2, a.a. 1850-2190, 65% identity with TrioGEFD2, 1.7 μM). Different concentrations of RhoGEFs were used to yield similar nucleotide exchange […]. For each exchange factor, three independent experiments were done in absence or in the presence of a 20-fold molar excess of GST-TRIAPα. […] Thus, the in vitro inhibitory activity of TRIAPα was selective for TrioGEFD2 (see table I for summary of the tested RhoGEFs).

| Molecule | Reversion of TrioGEFD2 inhibition of NGF-induced neurite outgrowth [1] | Effect on Kalirin GEFD2 exchange activity on RhoA [2] | Effect on Kalirin GEFD2 exchange activity on RhoA ([2]; listed as GST-TRIAPα) | in vitro GEF assay (inhibition) ([2]; RhoGEF KalirinDH2PH2) |
| --- | --- | --- | --- | --- |
| AREGADGAICGYNLATLVMLGPSERVFCPLCEPCSSDIYELM [TRIPα, 42-amino acid peptide corresponding to the variable region of TRIAPα] | only the TrioGEFD2 effect is reversed | slightly inhibited |  |  |
| B1 |  | weakly inhibits | only weakly inhibited | +^2 |
